According to publication PMC8216470:

Legend:
Test in all cases: MST
Conditions in all cases: MST with Cy5-labelled tRNA; buffer, salt, pH and temperature not in the material (protein storage: 10 mM Tris-HCl pH 8.0, 200 mM NaCl, 0.5 mM TCEP)
[1] = test system: ADAT2;ADAT3 WT (Mus musculus;Mus musculus)
[2] = test system: ADAT2;ADAT3-Δloop (Mus musculus;Mus musculus)
TadA (Escherichia coli) = test system: TadA (Escherichia coli)
[3] = test system: ADAT2;ADAT3-ΔN (Mus musculus;Mus musculus)
[4] = test system: ADAT2;ADAT3-V128I (Mus musculus;Mus musculus)
[5] = test system: ADAT2;ADAT3-V128L (Mus musculus;Mus musculus)
[6] = test system: ADAT2;ADAT3-V128M (Mus musculus;Mus musculus)

Substance	Kd [1] [µM]	Kd [2] [µM]	Kd (TadA (Escherichia coli)) [µM]	Kd [3] [µM]	Kd [4] [µM]	Kd [5] [µM]	Kd [6] [µM]
tRNAAla(AGC)	8	6.7					
tRNAArg(ACG)	3.7	6.5	6.6				
tRNAGly(CCC)	3			35.8			
tRNAVal(AAC)	3.5	6.7		44.5	3.3	4.2	2.5
